Test results from article PMC9440017, “Structural basis for Gemin5 decamer-mediated mRNA binding” (Nature Communications, 2022).
Numbering of substitutions follows the chain as printed. Names and notes keep the numbering of the source. Values joined by “and” are separate entries in the source; they are usually repeats but may differ in a detail not shown here. Equal values may be shown once.

B1: G5C K1363A/K1436A/R1437A/R1444A/K1492A mutant (domain or fragment, human, UniProt Q8TEQ6 841-1508, looked up)
chain: KKRKARSLLPLSTSLDHRSKEELHQDCLVLATAKHSRELNEDVSADVEERFHLGLFTDRATLYRMIDIEGKGHLENGHPELFHQLMLWKGDLKGVLQTAAERGELTDNLVAMAPAAGYHVWLWAVEAFAKQLCFQDQYVKAASHLLSIHKVYEAVELLKSNHFYREAIAIAKARLRPEDPVLKDLYLSWGTVLERDGHYAVAAKCYLGATCAYDAAKVLAKKGDAASLRTAAELAAIVGEDELSASLALRCAQELLLANNWVGAQEALQLHESLQGQRLVFCLLELLSRHLEEKQLSEGKSSSSYHTWNTGTEGPFVERVTAVWKSIFSLDTPEQYQEAFQKLQNIKYPSATNNTPAKQLLLHICHDLTLAVLSQQMASWDEAVQALLRAVVRSYDSGSFTIMQEVYSAFLPDGCDHLRDKLGDHQSPATPAFKSLEAFFLYGRLYEFWWSLSRPCPNSSVWVRAGHRTLSVEPSQQLDTASTEETDPETSQPEPNRPSELDLRLTEEGERMLSTFKELFSEAHASLQNSQRTVAEVQETLAEMIRQHQKSQLCKSTANGPDKNEPEVEAEQPLCSSQSQCKEEKNEPLSLPELTAALTEANQAMAKFPESIKAWPFPDVLECCLVLLLIRSHFPGCLAQEMQQQAQELLQAYGNTKTYRRHCQTFCM
notes: Gemin5, human, residues 841-1508 with K1363A, K1436A, R1437A, R1444A and K1492A; also called M5; source: E. coli BL21 (DE3), purified in the same way as wild-type G5C; not shown: His6, N-terminal, cleaved; copies: 10
B2: Gemin5 C-terminal fragment (Gemin5 841-1508), wild type (domain or fragment, human, UniProt Q8TEQ6 841-1508, looked up)
chain: B1 chain with A523K, A596K, A597R, A604R, A652K
notes: Gemin5, human, residues 841-1508 of the 1508-residue protein; Homodecamer (dimer of pentamers) by cryo-EM and static light scattering; also called G5C; G5C wild type; source: E. coli BL21 (DE3), purified (Ni-NTA, TEV cleavage, Superdex 200 gel filtration, mono Q); not shown: His6, N-terminal, cleaved; copies: 10
B3: G5C R1035A/K1061A/K1062A/R1090A quadruple mutant (domain or fragment, human, UniProt Q8TEQ6 841-1508, looked up)
chain: B1 chain with R195A, K221A, K222A, R250A, A523K, A596K, A597R, A604R, A652K
notes: Gemin5, human, residues 841-1508 with R1035A, K1061A, K1062A and R1090A; also called M4; source: E. coli BL21 (DE3), purified in the same way as wild-type G5C; not shown: His6, N-terminal, cleaved; copies: 10
B4: G5C L1381D/M1384D/I1385D triple mutant (domain or fragment, human, UniProt Q8TEQ6 841-1508, looked up)
chain: B1 chain with A523K, L541D, M544D, I545D, A596K, A597R, A604R, A652K
notes: Gemin5, human, residues 841-1508 with L1381D, M1384D and I1385D; also called M2; source: E. coli BL21 (DE3), purified in the same way as wild-type G5C; not shown: His6, N-terminal, cleaved
B5: G5C L1469H single mutant (domain or fragment, human, UniProt Q8TEQ6 841-1508, looked up)
chain: B1 chain with A523K, A596K, A597R, A604R, L629H, A652K
notes: Gemin5, human, residues 841-1508 with L1469H; also called M3; source: E. coli BL21 (DE3), purified in the same way as wild-type G5C; not shown: His6, N-terminal, cleaved; copies: 10
B6: G5C L1468D/L1469D double mutant (domain or fragment, human, UniProt Q8TEQ6 841-1508, looked up)
chain: B1 chain with A523K, A596K, A597R, A604R, L628D, L629D, A652K
notes: Gemin5, human, residues 841-1508 with L1468D and L1469D; also called M1; source: E. coli BL21 (DE3), purified in the same way as wild-type G5C; not shown: His6, N-terminal, cleaved

Tests used:
[1] = biological target: G5C (Gemin5 841-1508) wild type (Homo sapiens) (UniProt Q8TEQ6); assay: fluorescence polarization; settings: EMSA: 20 mM Tris-HCl pH 7.5, 100 mM NaCl, 1 h on ice, 0.35 uM RNA; FP: 20 mM Tris-HCl pH 7.5, 150 mM NaCl, 10 nM RNA (40 nM U7), protein 0-41 uM, temperature …
G5C A951E (Homo sapiens) = assay: fluorescence polarization; settings: EMSA: 20 mM Tris-HCl pH 7.5, 100 mM NaCl, 1 h on ice, 0.35 uM RNA; FP: 20 mM Tris-HCl pH 7.5, 150 mM NaCl, 10 nM RNA (40 nM U7), protein 0-41 uM, temperature …
G5C M4 (Homo sapiens) = assay: fluorescence polarization; settings: EMSA: 20 mM Tris-HCl pH 7.5, 100 mM NaCl, 1 h on ice, 0.35 uM RNA; FP: 20 mM Tris-HCl pH 7.5, 150 mM NaCl, 10 nM RNA (40 nM U7), protein 0-41 uM, temperature …
[2] = biological target: the molecule itself; assay: SEC; size-exclusion chromatography of purified G5C wild type and mutants against a molecular weight marker; self-association
[3] = biological target: the molecule itself; assay: SEC-MALS; Superose 6 Increase 10/300 GL coupled to DAWN HELEOS 8+; 100 ul at 1 mg/ml; 20 mM Tris-HCl pH 7.5, 330 mM NaCl; self-association

| Molecule | stoichiometry N [2] | further results |
| --- | --- | --- |
| SL1 RNA, FAM (FP) |  | Kd [1]: 6.5 µM; Kd (G5C A951E (Homo sapiens)): 32 µM; Kd (G5C M4 (Homo sapiens)): 138 µM |
| B1 | 10 |  |
| B2 |  | stoichiometry N [3]: 10 |
| B3 | 10 |  |
| B4 | 2 and 4 |  |
| B5 | 10 |  |
| B6 | 2 and 4 |  |
